Kd, percent of radioactive counts bound and affinity (親和性) data for three substances are collected here from patent publication JP2012233002A.

In assay [1] the target is Aβ (β-amyloid peptide; length and physical form not specified in the assay) (human) (UniProt P05067). Put plainly: BIAcore (SPR). On the technique in general: Surface plasmon resonance follows binding to a sensor surface in real time, without labels.
Assay [2] shares this target. Kind of assay: Biacore (SPR).
The target of assay [3] is 可溶性Aβ1−42 (soluble synthetic Aβ1-42 sonicated in DMSO, 125I-labelled) (human) (UniProt P05067). Put plainly: capture radioimmunoassay, 50,000 CPM 125I-Aβ1-42 (or 125I-Aβ1-40).
Assay [4] has as its target 凝集型Aβ1−42 (aggregated synthetic Aβ1-42) (human) (UniProt P05067). Put plainly: ELISA on aggregated synthetic Aβ1-42.

In general, Kd refers to the equilibrium constant for the complex coming apart. Read a low Kd as tighter binding. Consider マウス3D6 (mouse monoclonal antibody 3D6), for which the Kd in assay [1] was 0.88 nM.

Turning to “組換えマウス12A11Cγ2a(アイソタイプスイッチ12A11) (antibody)”, the Kd in assay [2] stood at 38 nM. “マウス10D5 (mouse monoclonal antibody 10D5)”: in assay [3], the percent of radioactive counts bound at 10 μg/ml antibody came to 2%. In addition, in assay [4], the affinity (親和性) is less than 1 nM.
